Experimental data: patent US20150023989A1 (Seagen, published 2015)

Target: T1, hFGFR2α-Fc (IIIb) (Human, UniProt P21802-3 22-378, biotinylated with biotin-LC-NHS (2-fold molar excess), positions not stated)
T1 construct: Bought protein; also called RnD Systems 663-FR; not shown: Fc part of the bought fusion protein
Assay: ELISA; biotinylated Fc fusion protein on streptavidin plate, Fab at 1 µg/ml; signal against TRAIL-Fc wells (+++: ratio >5)

T1 sequence (P21802 other isoform, or with tags, fused parts or gaps limits assumed): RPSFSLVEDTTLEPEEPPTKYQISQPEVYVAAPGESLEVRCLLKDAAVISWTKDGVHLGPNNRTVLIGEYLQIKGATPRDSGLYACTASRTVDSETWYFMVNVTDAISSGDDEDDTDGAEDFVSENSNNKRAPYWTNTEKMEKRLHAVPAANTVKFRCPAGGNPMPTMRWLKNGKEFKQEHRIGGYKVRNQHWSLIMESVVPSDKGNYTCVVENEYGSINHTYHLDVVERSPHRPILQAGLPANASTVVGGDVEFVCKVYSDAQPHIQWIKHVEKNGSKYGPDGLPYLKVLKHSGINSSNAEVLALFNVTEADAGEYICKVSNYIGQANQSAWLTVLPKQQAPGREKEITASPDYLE

B1: parental Fab fragment M048-D01 (Fab, V domains shown)
VH: EVQLLESGGGLVQPGGSLRLSCAASGFTFSSYAMSWVRQAPGKGLEWVSAISGSGTSTYYADSVKGRFTISRDNSKNTLYLQMNSLRAEDTAVYYCARVRYNWNHGDWFDPWGQGTLVTVSS
VL: QSVLTQPPSASGTPGQRVTISCSGSSSNIGNNYVSWYQQLPGTAPKLLIYENYNRPAGVPDRFSGSKSGTSASLAISGLRSEDEADYYCSSWDDSLNYWVFGGGTKLTVL
notes: Fab from the n-CoDeR phage display library, expressed in E. coli and purified through its his-tag; constant domains and tag are not; also called M048-D01 Fab; sFab
  binding result: binds
